Values belong to the binder of their own block, whether it stands above or below them.
Key:
[1] = target: T1, recombinant human IL-26/AK155 monomer, Cat #1375-IL/CF, R&D Systems (human, UniProt Q9NPH9 22-171); assay: ELISA, human IL-26 monomer coated at 0.5 µg/ml, antibody diluted 2-fold from 5 µg/ml, HRP anti-mouse kappa detection
T1 construct: also called recombinant human IL-26 monomer
T1 sequence (looked up): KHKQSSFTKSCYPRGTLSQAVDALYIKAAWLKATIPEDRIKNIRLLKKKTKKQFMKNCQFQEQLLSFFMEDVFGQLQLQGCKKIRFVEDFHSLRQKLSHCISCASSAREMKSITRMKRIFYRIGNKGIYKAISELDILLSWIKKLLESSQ
Experimental: The antigen binding of purified Ch69-10-IgG1, Hu69-10A-IgG1, and Hu69-10B-IgG1 was analyzed by ELISA. ELISA plates were coated overnight at 4° C. with the addition of 0.5 μg/ml human IL-26 (recombinant human IL-26/AK155 monomer, Cat #1375-IL/CF, R&D Systems, Minneapolis, MN) at 100 μl/well in 0.2 M sodium carbonate buffer (pH 9.4). Wells were washed with the wash buffer and blocked with the ELISA buffer. Subsequently, 100 μl/well of test antibody (mouse 69-10, Ch69-10-IgG1, Hu69-10A-IgG1, or Hu69-10B-IgG1) serially diluted 2-fold in RPMI medium starting at 5 μg/ml was added to measure a binding with IL-26. After incubation at room temperature for 1 hour and washing the plates with a wash buffer, a 1/2,000-diluted HRP-conjugated goat anti-human kappa chain polyclonal antibody (Bethyl Laboratories) (for Ch69-10-IgG1, Hu69-10A-IgG1 and Hu69-10B-IgG1) or a 1/2,000-diluted HRP-labeled goat anti-mouse kappa chain polyclonal antibody (Bethyl Laboratories) (for mouse 69-10) in ELISA buffer was added at 100 μl/well to detect bound antibodies. After incubation at room temperature for 30 min and washing with the wash buffer, 100 μl/well of ABTS substrate (Sigma Aldrich) was added to start color development and 100 μl/well of 2% oxalic acid was added to stop the color development. The absorbance was measured at 405 nm.

[2] = target: T2, human EphA3 on the surface of HCC70 cells (human, UniProt P29320 21-983); assay: immunofluorescence colocalization on HCC70 cells (FIG. 21)
T2 construct: whole, on cells; Endogenous receptor on HCC70 cells; also called cell surface EphA3; EphA3 receptor
T2 sequence (looked up): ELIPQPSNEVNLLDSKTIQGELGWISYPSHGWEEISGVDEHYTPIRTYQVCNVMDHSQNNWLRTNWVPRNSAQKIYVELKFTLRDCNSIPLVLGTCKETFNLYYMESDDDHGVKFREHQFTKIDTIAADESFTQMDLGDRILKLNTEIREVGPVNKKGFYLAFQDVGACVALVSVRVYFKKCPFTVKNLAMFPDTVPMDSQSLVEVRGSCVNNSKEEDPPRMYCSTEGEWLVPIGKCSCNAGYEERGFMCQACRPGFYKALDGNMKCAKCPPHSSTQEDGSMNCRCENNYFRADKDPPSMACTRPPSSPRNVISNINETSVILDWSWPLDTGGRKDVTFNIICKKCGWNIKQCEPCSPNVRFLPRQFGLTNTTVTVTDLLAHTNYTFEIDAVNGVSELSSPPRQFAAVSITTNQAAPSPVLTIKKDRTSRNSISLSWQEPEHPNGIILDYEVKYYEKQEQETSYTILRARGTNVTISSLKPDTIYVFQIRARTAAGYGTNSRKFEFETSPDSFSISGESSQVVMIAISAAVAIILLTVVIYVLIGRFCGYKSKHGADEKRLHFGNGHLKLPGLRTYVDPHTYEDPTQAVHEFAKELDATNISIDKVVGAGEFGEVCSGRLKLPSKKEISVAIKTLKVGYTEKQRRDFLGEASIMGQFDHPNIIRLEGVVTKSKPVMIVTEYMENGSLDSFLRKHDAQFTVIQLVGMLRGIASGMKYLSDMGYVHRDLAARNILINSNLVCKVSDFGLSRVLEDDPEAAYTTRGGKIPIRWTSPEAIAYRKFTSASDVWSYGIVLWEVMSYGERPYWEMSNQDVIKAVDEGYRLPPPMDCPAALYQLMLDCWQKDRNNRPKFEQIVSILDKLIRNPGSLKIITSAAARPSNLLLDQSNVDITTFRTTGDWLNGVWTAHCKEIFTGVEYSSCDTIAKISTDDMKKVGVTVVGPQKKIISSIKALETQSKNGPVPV
Experimental: IL-26 merged with EphA3 on the cell surface. […] Original magnification 200×. Scale bar=20 μm. Representative images of three independent experiments with similar results are shown.
(§1) E0771 and HCC70 cells (1×10⁵) were cultured for 24 hours in RPMI1640 medium with 10% FCS on Lab-Tek chamber slides (Thermo Fisher Scientific). The cultured cells were stimulated with Alexa Fluor 488 labeled IL-26 (30 ng/ml) in the presence or absence of recombinant human and mouse EphA3-Ig for 1 hour. HCC70 cells were stimulated with IL-26 (30 ng/ml) in the presence or absence of gefitinib (40 μM), a signal inhibitor, and a neutralizing antibody for 24 hours. Subcutaneous tumor samples obtained from mice were fixed in 4% paraformaldehyde (Thermo Fisher Scientific) and embedded in OCT compound (Tissue-Tek (registered trademark), Sakura Finetek, Japan). Cells and slides were immunostained with each antibody and observed using a Zeiss inverted microscope and Axiovision 2.0 program (Carl Zeiss, Germany). The fluorescence intensity was quantified with Image-J software (NIH). The images were captured using a 100×400× objective.

[3] = target: T3, mouse EphA3 on the surface of E0771 cells (mouse, UniProt P29319 21-983); assay: 2.5D fluorescence intensity plot of stained E0771 cells (FIG. 18)
T3 construct: whole, on cells; Endogenous receptor on E0771 cells; also called cell surface EphA3; EphA3 receptor
T3 sequence (looked up): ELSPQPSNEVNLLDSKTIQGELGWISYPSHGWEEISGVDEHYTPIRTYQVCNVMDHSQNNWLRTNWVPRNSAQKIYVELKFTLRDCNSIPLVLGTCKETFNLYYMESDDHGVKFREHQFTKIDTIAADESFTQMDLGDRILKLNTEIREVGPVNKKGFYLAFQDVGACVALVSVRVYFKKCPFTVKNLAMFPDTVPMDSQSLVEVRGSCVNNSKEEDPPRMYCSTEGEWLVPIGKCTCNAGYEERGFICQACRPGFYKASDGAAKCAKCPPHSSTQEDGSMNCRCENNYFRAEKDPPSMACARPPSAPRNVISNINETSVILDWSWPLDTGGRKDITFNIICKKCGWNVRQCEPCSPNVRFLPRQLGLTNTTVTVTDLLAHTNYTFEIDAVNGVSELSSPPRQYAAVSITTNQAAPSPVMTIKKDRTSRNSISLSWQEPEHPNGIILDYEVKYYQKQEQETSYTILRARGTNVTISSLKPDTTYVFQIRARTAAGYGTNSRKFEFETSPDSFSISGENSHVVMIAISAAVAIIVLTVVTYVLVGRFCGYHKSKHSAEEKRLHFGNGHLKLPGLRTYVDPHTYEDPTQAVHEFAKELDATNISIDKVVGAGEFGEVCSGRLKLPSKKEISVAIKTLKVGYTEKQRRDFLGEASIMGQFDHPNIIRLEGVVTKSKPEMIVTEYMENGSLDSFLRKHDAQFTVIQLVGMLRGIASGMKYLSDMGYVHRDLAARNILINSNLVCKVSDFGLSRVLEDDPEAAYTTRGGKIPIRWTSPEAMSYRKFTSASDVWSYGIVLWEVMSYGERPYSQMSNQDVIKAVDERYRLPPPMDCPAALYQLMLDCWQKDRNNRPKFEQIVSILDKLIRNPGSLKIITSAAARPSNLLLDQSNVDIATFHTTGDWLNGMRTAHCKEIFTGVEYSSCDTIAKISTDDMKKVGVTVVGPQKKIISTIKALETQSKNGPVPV
Experimental: 2.5D intensity plot of EphA3, IL-26, and DAPI signals represents the absolute signal intensity of each pixel. Merged views and individual channels were shown. […] These images show EphA3/IL-26 interaction in E0771 cells. 200×. A representative image of five independent experiments showing similar results is shown.
as §1

- EC50 [1]: 0.34 µg/mL
B1: mouse anti-human IL-26 monoclonal antibody clone 69-10 (antibody, V domains shown)
VH: QVTLKESGPGILKPSQTLSLTCSFSGFSLSTSGMGVGWIRQPSGKGLEWLAHIWWDDDKYYNPSLKSQLTISKDTSRNQVFLKITSVDTADTATYYCVRGGITATHYYAMDYWGQGTSVTVSS
VL: DIQMTQSPASQSASLGESVTISCLASQTIGTWLSWYQQKPGKSPQLLIYAATSLADGVPSRFSGSGSGTKFSFKISSLQAEDFVSYYCQQLYSSPWTFGGGTKLEIK
notes: Mouse antibody from a hybridoma; also called mouse 69-10; m69-10

- binding result [3]: binds
B2: Recombinant human IL-26 dimer (R&D Systems) (ligand, UniProt Q9NPH9 22-171, looked up)
chain: T1 sequence (looked up)
notes: Bought from R&D Systems and used for cell stimulation; For the immunofluorescence experiments it was labeled with Alexa Fluor 488 (rhIL-26-Alexa 488); also called exogenous IL-26; rhIL-26-Alexa 488
- binding result [2]: binds
